Assay results from the Human Domainome abundance scans (Beltran et al. 2025).

B1: Transcription factor SOX-11, residues 50 to 117; numbered along this chain, P35716 (parent)
chain: KRPMNAFMVWSKIERRKIMEQSPDMHNAEISKRLGKRWKMLKDSEKIPFIREAERLRLKHMADYPDYK

Variants of: B1
Assay: abundance fitness (aPCA) (normalised: wild type 0, dead -1); higher = more abundant; growth selection in yeast, the domain comes from the species named
Conditions: Homo sapiens

Abundance fitness, by site and new letter:
I30: H -0.733, N -0.701, S -0.682, W -0.611, P -0.708, V 0.039, D -0.779, R -0.879, K -1.09, Y -0.596, Q -0.797, M -0.711, C -0.304, G -0.67
H26: N 0.277, K 0.195, R -0.106, P 0.205, A 0.158, M -0.194, V -0.283, G 0.22, I -0.266, C 0.226, S 0.406, F -0.497, Y -0.368, T 0.453, D 0.414, W -0.388, Q 0.064, L -0.146, E 0.383
N27: D 0.403, W 0.105, K -0.178, E 0.333, V -0.178, R -0.341, T -0.033, F -0.128, G -0.096, S 0.07, P 0.4, H 0.139, Q 0.205, C -0.08, Y -0.213, L -0.279, M -0.287, A 0.177
R33: C 0.178, D 0.169, A 0.22
M25: K -0.608, H -0.641, P -0.892, W -0.715, A -0.141, G -0.759, T -0.317, R -0.546, Q -0.782, Y -0.793, F -0.571, C -0.34, V -0.278, N -0.418, S -0.53, E -0.739, D -0.717
D24: T -0.22, F -0.435, W -0.337, G -0.105, C -0.435, L -0.507, R -0.456, K -0.578, M -0.63, E -0.164, Y -0.35, N -0.128, V -0.643, H -0.26, P -0.836, Q -0.147, A -0.093, I -0.538
K32: T -0.308, Q -0.061, L -0.175, H -0.036, S -0.253, E 0.245, W -0.137, G -0.245, F -0.329, P -0.672, V -0.101, A 0, I -0.145, D 0.047, M -0.17, N -0.185
A28: R -0.266, C -0.268, F -0.47, G -0.205, T -0.134, P -0.562, K -0.278, D 0.205, N -0.24, Y -0.34, W -0.425, L -0.211, E -0.061, I -0.205, Q -0.247, M -0.529, H -0.183
P23: G -0.431, N -0.843, V -0.598, Y -0.665, R -0.74, K -1.28, I -0.869, H -0.791, M -0.85, Q -0.706, L -0.287, S -0.453, E -0.49, W -1.09
S31: Y -0.262, M -0.333, P -0.855, H -0.244, C -0.2, V -0.064, F -0.246, K -0.096, A 0.143, W -0.3, E 0.489, Q -0.213, T 0.029, N 0.195, D 0.176, L -0.2, G -0.278, R -0.311
E29: C -0.767, I -0.815, T -0.753, R -1.1, P -0.866, H -0.666, A -0.436, Q -0.517, S -0.638, K -0.363, G -0.792, Y -0.969, L -0.798
